Assay results: the supplement of paper PMC5998384

Columns and labels:
HeLa Kyoto [1] = assay: thermal stability score vs G1/S (z-score of summed log2 fold changes over temperatures); higher = more thermally stable than in G1/S
HeLa Kyoto [2] = assay: solubility change mitosis vs G1/S (difference of NP-40 vs SDS log2 ratios) (log2 ratio difference); higher = more soluble in mitosis
HeLa Kyoto [3] = assay: solubility in G1/S (NP-40 vs SDS abundance) (log2 ratio); higher = more soluble; details: cell cycle stage: G1/S
HeLa Kyoto [4] = assay: melting temperature (median over replicates), in situ; higher = more thermally stable
[5] = cell cycle stage: early G1 (4.5 h after nocodazole release)
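Throughout, for melting temperature (median over replicates), in situ: HeLa Kyoto cells synchronized by double thymidine or nocodazole block, proteins quantified by TMT10plex mass spectrometry, three independent biological replicates.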
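Throughout, for solubility change mitosis vs G1/S (difference of NP-40 vs SDS log2 ratios): synchronized HeLa Kyoto cells (double thymidine block for G1/S, nocodazole release for mitosis), protein amounts in NP-40 versus SDS lysates quantified by mass spectrometry, three biological replicates.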
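Throughout, for solubility in G1/S (NP-40 vs SDS abundance): HeLa Kyoto cells arrested at G1/S by double thymidine block, proteins quantified by TMT10plex mass spectrometry in mild NP-40 versus SDS extracts, three biological replicates.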
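Throughout, for thermal stability score vs G1/S (z-score of summed log2 fold changes over temperatures): synchronized HeLa Kyoto cells, proteins quantified by TMT10plex mass spectrometry, three biological replicates, mitosis taken 0.5 h after nocodazole release, G1/S directly after double thymidine block.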

Chain of WWC2 (chain, as listed by the source): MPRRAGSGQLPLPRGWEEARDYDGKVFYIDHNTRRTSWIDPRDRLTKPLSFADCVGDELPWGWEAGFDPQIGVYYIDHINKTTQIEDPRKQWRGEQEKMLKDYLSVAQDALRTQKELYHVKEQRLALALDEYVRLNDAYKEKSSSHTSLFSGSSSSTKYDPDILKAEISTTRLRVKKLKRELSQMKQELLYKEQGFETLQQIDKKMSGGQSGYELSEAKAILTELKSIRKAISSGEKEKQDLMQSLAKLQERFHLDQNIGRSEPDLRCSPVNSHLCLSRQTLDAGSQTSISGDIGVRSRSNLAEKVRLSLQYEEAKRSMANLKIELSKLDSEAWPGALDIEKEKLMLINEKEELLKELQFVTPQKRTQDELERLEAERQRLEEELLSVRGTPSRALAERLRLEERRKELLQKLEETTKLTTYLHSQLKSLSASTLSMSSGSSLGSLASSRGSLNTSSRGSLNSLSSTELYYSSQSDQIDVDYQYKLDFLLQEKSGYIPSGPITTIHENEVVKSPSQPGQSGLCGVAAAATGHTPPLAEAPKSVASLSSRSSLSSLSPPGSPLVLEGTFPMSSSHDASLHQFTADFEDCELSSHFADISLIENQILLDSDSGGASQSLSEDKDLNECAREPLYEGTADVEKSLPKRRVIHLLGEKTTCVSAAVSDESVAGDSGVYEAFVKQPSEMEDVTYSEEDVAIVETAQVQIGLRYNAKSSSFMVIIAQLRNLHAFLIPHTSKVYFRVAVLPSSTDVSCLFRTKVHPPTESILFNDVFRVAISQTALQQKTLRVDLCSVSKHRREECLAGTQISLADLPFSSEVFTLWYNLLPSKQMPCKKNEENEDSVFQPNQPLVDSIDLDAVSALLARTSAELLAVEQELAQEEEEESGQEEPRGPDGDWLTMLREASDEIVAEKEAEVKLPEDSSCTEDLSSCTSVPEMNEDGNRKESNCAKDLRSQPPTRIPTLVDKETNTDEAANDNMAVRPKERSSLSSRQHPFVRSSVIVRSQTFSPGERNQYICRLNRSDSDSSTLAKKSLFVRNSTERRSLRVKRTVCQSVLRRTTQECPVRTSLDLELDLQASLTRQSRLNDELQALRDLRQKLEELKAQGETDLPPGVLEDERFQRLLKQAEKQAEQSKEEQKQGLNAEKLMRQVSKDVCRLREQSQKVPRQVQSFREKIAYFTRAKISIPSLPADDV
Chain of CDK17 (chain, as listed by the source): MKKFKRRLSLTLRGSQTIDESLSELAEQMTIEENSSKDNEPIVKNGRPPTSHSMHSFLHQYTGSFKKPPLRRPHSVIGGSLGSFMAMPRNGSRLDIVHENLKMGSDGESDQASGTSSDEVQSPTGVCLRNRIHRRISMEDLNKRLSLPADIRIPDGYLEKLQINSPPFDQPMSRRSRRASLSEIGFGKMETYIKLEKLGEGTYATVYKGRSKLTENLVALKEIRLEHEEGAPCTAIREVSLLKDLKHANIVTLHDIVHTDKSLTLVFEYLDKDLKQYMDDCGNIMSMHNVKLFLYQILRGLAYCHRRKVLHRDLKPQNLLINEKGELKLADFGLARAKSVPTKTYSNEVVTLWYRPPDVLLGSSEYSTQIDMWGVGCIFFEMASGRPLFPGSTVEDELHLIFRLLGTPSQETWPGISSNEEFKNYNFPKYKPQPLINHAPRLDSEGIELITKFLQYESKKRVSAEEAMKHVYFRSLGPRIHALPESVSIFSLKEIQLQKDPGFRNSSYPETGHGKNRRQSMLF
Chain of UBE2D3 (chain, as listed by the source): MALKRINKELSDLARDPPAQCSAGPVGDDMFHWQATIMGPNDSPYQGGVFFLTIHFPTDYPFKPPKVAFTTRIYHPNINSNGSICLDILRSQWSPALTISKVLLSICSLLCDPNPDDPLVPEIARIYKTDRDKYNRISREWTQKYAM
Chain of PYM1 (chain, as listed by the source): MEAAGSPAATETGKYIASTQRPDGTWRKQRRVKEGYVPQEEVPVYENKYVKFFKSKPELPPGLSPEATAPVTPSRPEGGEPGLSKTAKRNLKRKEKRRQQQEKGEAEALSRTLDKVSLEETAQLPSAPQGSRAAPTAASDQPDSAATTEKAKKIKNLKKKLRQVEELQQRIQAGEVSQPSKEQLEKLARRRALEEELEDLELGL
Chain of PLSCR3 (chain, as listed by the source): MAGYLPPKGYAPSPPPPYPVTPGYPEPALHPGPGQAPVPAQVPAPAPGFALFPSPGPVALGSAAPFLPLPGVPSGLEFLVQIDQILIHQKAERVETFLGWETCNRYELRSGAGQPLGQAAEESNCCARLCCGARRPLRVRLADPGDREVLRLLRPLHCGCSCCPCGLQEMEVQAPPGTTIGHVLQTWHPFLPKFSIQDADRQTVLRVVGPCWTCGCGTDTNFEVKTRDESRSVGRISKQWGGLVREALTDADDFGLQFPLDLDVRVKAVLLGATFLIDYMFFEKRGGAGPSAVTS

Row | Substance | thermal stability score (HeLa Kyoto [1]; [5]) | thermal stability score (HeLa Kyoto [1]; cell cycle stage: mitosis) | solubility change mitosis (log2) (HeLa Kyoto [2]) | solubility in G1/S (log2) (HeLa Kyoto [3]) | melting temperature (HeLa Kyoto [4]; cell cycle stage: G1/S) | melting temperature (HeLa Kyoto [4]; cell cycle stage: mitosis)
1 | ASPM | 0.917 | -0.0273 | 0.177 | -0.625 |  | 
2 | CDK17 | 0.0888 | -0.0845 | 0.0778 | -0.187 |  | 
3 | DYNC2H1 | 0.756 | 0.972 | 0.0553 | -0.273 |  | 
4 | MAAAAGDGGGEGGAGLGSAAGLGPGPGLRGQGPSAEAHEGAPDPMPAALHPEEVAARLQRMQRELSNRRKILVKNLPQDSNCQEVHDLLKDYDLKYCYVDRNKRTAFVTLLNGEQAQNAIQMFHQYSFRGKDLIVQLQPTDALLCITNVPISFTSEEFEELVRAYGNIERCFLVYSEVTGHSKGYGFVEYMKKDFAAKARLELLGRQLGASALFAQWMDVNLLASELIHSKCLCIDKLPSDYRDSEELLQIFSSVHKPVFCQLAQDEGSYVGGFAVVEYSTAEQAEEVQQAADGMTIKGSKVQVSFCAPGAPGRSTLAALIAAQRVMHSNQKGLLPEPNPVQIMKSLNNPAMLQVLLQPQLCGRAVKPAVLGTPHSLPHLMNPSISPAFLHLNKAHQSSVMGNTSNLFLQNLSHIPLAQQQLMKFENIHTNNKPGLLGEPPAVVLQTALGIGSVLPLKKELGHHHGEAHKTSSLIPTQTTITAGMGMLPFFPNQHIAGQAGPGHSNTQEKQPATVGMAEGNFSGSQPYLQSFPNLAAGSLLVGHHKQQQSQPKGTEISSGAASKNQTSLLGEPPKEIRLSKNPYLNLASVLPSVCLSSPASKTTLHKTGIASSILDAISQGSESQHALEKCIAYSPPFGDYAQVSSLRNEKRGSSYLISAPEGGSVECVDQHSQGTGAYYMETYLKKKRVY [RAVER2] | 1.56 | 1.81 | -0.203 | 0.172 |  | 
5 | MAAVLESLLREEVSVAAVVRWIARSTQGSEDNAGEAAALSSLRALRKEFVPFLLNFLREQSSRVLPQGPPTPAKTPGASAALPGRPGGPPRGSRGARSQLFPPTEAQSTAAEAPLARRGGRRRGPGPARERGGRGLEEGVSGESLPGAGGRRLRGSGSPSRPSLTLSDPPNLSNLEEFPPVGSVPPGPTGTKPSRRINPTPVSEERSLSKPKTCFTSPPISCVPSSQPSALDTSPWGLGLPPGCRSLQEEREMLRKERSKQLQQSPTPTCPTPELGSPLPSRTGSLTDEPADPARVSSRQRLELVALVYSSCIAENLVPNLFLELFFVFQLLTARRMVTAKDSDPELSPAVLDSLESPLFQSIHDCVFFAVQVLECHFQVLSNLDKGTLKLLAENERLLCFSPALQGRLRAAYEGSVAKVSLVMPPSTQAVSFQPETDNRANFSSDRAFHTFKKQRDVFYEVLREWEDHHEEPGWDFEKGLGSRIRAMMGQLSAACSHSHFVRLFQKQLLQMCQSPGGAGGTVLGEAPDVLSMLGADKLGRLWRLQERLMAPQSSGGPCPPPTFPGCQGFFRDFILSASSFQFNQHLMDSLSLKIQELNGLALPQHEPNDEDGESDVDWQGERKQFAVVLLSLRLLAKFLGFVAFLPYRGPEPPPTGELQDSILALRSQVPPVLDVRTLLQRGLQARRAVLTVPWLVEFLSFADHVVPLLEYYRDIFTLLLRLHRSLVLSQESEGKMCFLNKLLLLAVLGWLFQIPTVPEDLFFLEEGPSYAFEVDTVAPEHGLDNAPVVDQQLLYTCCPYIGELRKLLASWVSGSSGRSGGFMRKITPTTTTSLGAQPSQTSQGLQAQLAQAFFHNQPPSLRRTVEFVAERIGSNCVKHIKATLVADLVRQAESLLQEQLVTQGEEGGDPAQLLEILCSQLCPHGAQALALGREFCQRKSPGAVRALLPEETPAAVLSSAENIAVGLATEKACAWLSANITALIRREVKAAVSRTLRAQGPEPAARGERRGCSRACEHHAPLPSHLISEIKDVLSLAVGPRDPDEGVSPEHLEQLLGQLGQTLRCRQFLCPPAEQHLAKCSVELASLLVADQIPILGPPAQYRLERGQARRLLHMLLSLWKEDFQGPVPLQLLLSPRNVGLLADTRPREWDLLLFLLRELVEKGLMGRMEIEACLGSLHQAQWPGDFAEELATLSNLFLAEPHLPEPQLRACELVQPNRGTVLAQS [CDAN1] | 0.128 | -0.765 | 0.117 | 0.0358 |  | 
6 | PIEZO2 |  |  | -0.0931 | -0.112 | 55.7 °C | 54.8 °C
7 | PLSCR3 |  |  | -0.119 | 0.116 |  | 56.6 °C
8 | PYM1 |  |  | 0.791 | 0.42 | 57.1 °C | 53.9 °C
9 | QSER1 |  |  | -0.127 | -0.136 | 46.5 °C | 48.5 °C
10 | RAP1GAP |  |  | -0.474 | 0.239 | 49.2 °C | 
11 | RERE |  |  | 0.148 | -0.116 |  | 50.7 °C
12 | RINT1 |  |  | -0.105 | -0.0714 | 51.4 °C | 49.2 °C
13 | SYNE2 |  |  | 0.607 | -0.84 | 51.1 °C | 50.3 °C
14 | TNRC6A |  |  | -0.0232 | -0.225 | 50.7 °C | 
15 | UBE2D3 |  |  | 0.0226 | 0.585 | 49.5 °C | 
16 | WWC2 |  |  | -0.0226 | -0.102 | 51.1 °C | 49.9 °C
